{"source": "paper PMC4205851", "about": "“Protein-tyrosine phosphorylation interaction network in Bacillus subtilis reveals new substrates, kinase activators and kinase cross-talk” (Frontiers in Microbiology, 2014)", "binders": {"B1": {"name": "MinC (purified) (natural protein, B. subtilis 168, UniProt Q01463 1-226, looked up)", "chain": "MKTKKQQYVTIKGTKNGLTLHLDDACSFDELLDGLQNMLSIEQYTDGKGQKISVHVKLGNRFLYKEQEEQLTELIASKKDLFVHSIDSEVITKKEAQQIREEAEIISVSKIVRSGQVLQVKGDLLLIGDVNPGGTVRAGGNIFVLGSLKGIAHAGFNGNNQAVIAASEMLPTQLRINHVLNRSPDHIQKGNEMECAYLDTDGNMVIERLQHLAHLRPDLTRLEGGM", "notes": "MinC of B. subtilis 168"}}, "molecular_target": "T1, Strep-tagged MinD (B. subtilis 168, UniProt Q01464 1-268)", "T1 construct": "MinD ATPase of B. subtilis 168, PCR fragment in a pQE-30 vector with the His6-tag replaced by the strep-tag; Pre-labelled with Strep-Tactin conjugated to horse radish peroxidase for the far-Western", "T1 sequence (looked up)": "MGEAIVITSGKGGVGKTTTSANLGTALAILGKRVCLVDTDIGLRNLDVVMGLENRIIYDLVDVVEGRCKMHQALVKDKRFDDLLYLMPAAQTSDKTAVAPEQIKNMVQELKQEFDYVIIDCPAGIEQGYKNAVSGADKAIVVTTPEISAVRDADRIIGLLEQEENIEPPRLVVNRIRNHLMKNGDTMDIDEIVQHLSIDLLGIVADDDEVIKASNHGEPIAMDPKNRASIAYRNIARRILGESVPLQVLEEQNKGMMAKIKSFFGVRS", "test": "far-Western; PtkA, MinC and TkmA separated by 12% SDS-PAGE, transferred to nitrocellulose and renatured; probed with Strep-tagged MinD labelled with Strep-Tactin-HRP in TBS-T (50 mM Tris pH 7.5, 150 mM NaCl, 0.05% Tween 20) with 1% BSA; AEC staining", "details": "both partners purified"}
{"binder": "B1", "values": [{"measurement": "binding result", "result": "binds"}]}
